Assay results reported in patent US20180023057A1.

Target: E-cadherin on human iPS cells (TkDN4-M) (human) (UniProt P12830)
Assay: cell-based or functional assay

Sequence of E-cadherin on human iPS cells (TkDN4-M) (human) (P12830 155-882 limits assumed): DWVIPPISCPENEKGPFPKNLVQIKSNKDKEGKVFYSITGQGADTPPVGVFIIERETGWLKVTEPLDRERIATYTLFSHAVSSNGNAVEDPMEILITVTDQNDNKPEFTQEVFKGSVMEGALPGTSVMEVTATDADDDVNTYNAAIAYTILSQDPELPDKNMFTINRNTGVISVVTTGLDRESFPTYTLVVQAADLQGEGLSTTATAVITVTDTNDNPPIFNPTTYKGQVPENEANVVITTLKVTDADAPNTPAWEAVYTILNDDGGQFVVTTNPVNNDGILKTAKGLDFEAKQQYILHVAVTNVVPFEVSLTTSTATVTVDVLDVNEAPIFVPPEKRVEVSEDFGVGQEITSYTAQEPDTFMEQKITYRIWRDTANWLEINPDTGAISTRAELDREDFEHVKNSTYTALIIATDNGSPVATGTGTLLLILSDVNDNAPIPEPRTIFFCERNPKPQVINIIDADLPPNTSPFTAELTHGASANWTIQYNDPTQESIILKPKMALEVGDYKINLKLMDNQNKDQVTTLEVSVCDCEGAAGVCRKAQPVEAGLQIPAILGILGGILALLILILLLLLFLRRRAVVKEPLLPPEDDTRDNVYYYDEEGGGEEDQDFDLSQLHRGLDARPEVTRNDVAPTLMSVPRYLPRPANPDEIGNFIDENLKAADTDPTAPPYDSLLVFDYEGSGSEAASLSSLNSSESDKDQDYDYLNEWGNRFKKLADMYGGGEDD

- diameter of hiPS cell aggregates on Day 5 of culture in Essential 8, E-cadherin-Fc 50 or 100 µg/ml for the first 48 hours: 500 µm
- sizes of hiPS cell aggregates 48 hours after the E-cadherin-Fc treatment, 5 µg/ml (without E-cadherin-Fc: 1000 to 3000 µm): 300 to 700 µm
- sizes of hiPS cell aggregates 48 hours after the E-cadherin-Fc treatment, 10 µg/ml: 200 to 400 µm
- sizes of hiPS cell aggregates 48 hours after the E-cadherin-Fc treatment, 20 µg/ml: 100 to 500 µm
- sizes of hiPS cell aggregates 48 hours after the E-cadherin-Fc treatment, 50 µg/ml: 100 to 300 µm
- sizes of hiPS cell aggregates 48 hours after the E-cadherin-Fc treatment, 100 µg/ml: 150 to 700 µm
B1: E-cadherin-Fc fusion protein (Fc fusion, not shown: a dimerising Fc or GST)
chain: DWVIPPISCPENEKGEFPKNLVQIKSNRDKETKVFYSITGQGADKPPVGVFIIERETGWLKVTQPLDREAIAKYILYSHAVSSNGEAVEDPMEIVITVTDQNDNRPEFTQPVFEGFVAEGAVPGTSVMKVSATDADDDVNTYNAAIAYTIVSQDPELPHKNMFTVNRDTGVISVLTSGLDRESYPTYTLVVQAADLQGEGLSTTAKAVITVKDINDNAPVFNPSTYQGQVPENEVNARIATLKVTDDDAPNTPAWKAVYTVVNDPDQQFVVVTDPTTNDGILKTAKGLDFEAKQQYILHVRVENEEPFEGSLVPSTATVTVDVVDVNEAPIFMPAERRVEVPEDFGVGQEITSYTAREPDTFMDQKITYRIWRDTANWLEINPETGAIFTRAEMDREDAEHVKNSTYVALIIATDDGSPIATGTGTLLLVLLDVNDNAPIPEPRNMQFCQRNPQPHIITILDPDLPPNTSPFTAELTHGASVNWTIEYNDAAQESLILQPRKDLEIGEYKIHLKLADNQNKDQVTTLDVHVCDCEGTVNNCMKAGIVAAGLQV
